# Results taken from PMC11500612, “Differential effects of inosine monophosphate dehydrogenase (IMPDH/GuaB) inhibition in Acinetobacter baumannii and Escherichia coli” (Journal of Bacteriology, 2024).
# B1: A. baumannii GuaB with CBS domain deletion protein (M1-G488_ΔM93-R201) (enzyme)
# chain: MLTIVQEALTFDDVLLLPAYSTVLPKDVSLKTRLTRGIYLNIPLVSAAMDTVTESRMAIAMAQNGGIGILHKNMDIAAQAAEVRRVKKFEAGKAESYPNSCKDDLGRLRVGAAVGTGADTPSRVEALVEAGVDVIVVDTAHGHSAGVIERVRWVKQNFPQVQVIGGNIATGDAALALLDAGADAVKVGIGPGSICTTRIVAGIGMPQISAIDSVASALKDQIPLIADGGIRFSGDMAKAIGAGASTIMVGSLLAGTEEAPGEVEFFQGRYYKAYRGMGSLGAMAGATGSADRYFQDSKAGAEKLVPEGIEGRVPYKGPMGNIVHQMMGGLRSSMGYTGSAVIEDLRQNAKFVKITSAGMSESHVHDVTITKEAPNYRVG
# notes: also called A. baumannii GuaBΔCBS; GuaB^Ab; source: expressed, purified, and crystallized as described (28)
# Molecular target: the molecule itself
# Assay: crystal structure
protein,measurement,value
B1,binding result,binds
